Data: the supplement of paper PMC9170038

Test system: MS2 coat protein
Assay: apparent KD of MS2 coat protein; designed switch direction (-1 OFF switch, 1 ON switch): 1; higher = weaker reporter binding
Summary of the method: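 For each design, the apparent KD is the median over clusters of curves fitted to normalised cluster fluorescence. Clusters held RNA switches with common flanks, transcribed on Illumina chips by stalled E. coli RNA polymerase. These were titrated with SNAP-549-labelled MS2 coat protein, doubling from 0.7 or 1.5 nM to 3 µM, without input, with 200 uM small-molecule ligand, or with an oligonucleotide input.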

[1] = input ligand: microRNA oligo, concentration not stated
[2] = Eterna round: R95, input ligand: FMN 200 uM
[3] = Eterna round: R95, input ligand: microRNA oligo, concentration not stated
[4] = Eterna round: R95, input ligand: none

Sequence	apparent KD of MS2 coat protein (input ligand: FMN 200 uM)	apparent KD of MS2 coat protein [1]	apparent KD of MS2 coat protein (input ligand: none)	apparent KD of MS2 coat protein [2]	apparent KD of MS2 coat protein [3]	apparent KD of MS2 coat protein [4]
CCGCUCCGUGGAGGAUAUGGGCCUGCCCGGGAUAACGGGCCUAACACAUGAGGAUCACCCAUGUCCCAGAAGGCCGCUGGAGCC [Atxerexebe] (Eterna round: R96, puzzle: Same State NG 2)	24.8 nM	40 nM	113 nM	–	–	–
CCGGUAAAUGGAGGAUAUGGAGCCUUAUUGGCUCCAGAAGGCUAACAUGAGGAUCACCCAUGUAUACCGGCGGUCAAUAGACCG [Eli NG1ss - 64] (Eterna round: R96, puzzle: Same State NG 1)	11 nM	16.3 nM	21.8 nM	–	–	–
CCGGUGAUAGGGCAGGAUAUGACUGUCGUCACAUGAGGAUCACCCAUGUCCCGGCAAUGCCACCGUUAGAAGGGCCCUAUCCCGA [Teuszaesti] (puzzle: Same State 2)	–	–	–	14.8 nM	12.1 nM	15 nM
CCUAUAGCCACAGGAUAUGAGAACACGUUGAACGUACAUGAGGAUCACCCAUGUCGCCGAUCGACUUAGAAGGGUGGCCCUCGC [Eternabot solution 26] (Eterna round: R96, puzzle: Same State NG 2)	34.4 nM	37.9 nM	29.4 nM	–	–	–
CGGCGCUGUCGAGAGGAUAUGCGGUGACGGACAUGAGGAUCACCCAUGUUAGCGAUAGCGUUACGGUAGAAGGCUCUACAGUCGC [Soteed Omei mod 10] (Eterna round: R96, puzzle: Same State 2)	19.1 nM	125 nM	217 nM	–	–	–
CGGCGCUGUCGAGAGGAUAUGCGGUGACGGACAUGAGGAUCACCCAUGUUAGCGAUAGCGUUACGGUAGAAGGCUCUACAGUCGC [Soteed Omei mod 10] (puzzle: Same State 2)	–	–	–	–	49.2 nM	–
CGGGUACAUGAGGAUCACCCAUGUUGGAGUAAUGCAGGAUAUGUGAGACGAGAAGAUAAAACAGAAGGGCAAGGAG [JR_SS!_Sub009] (puzzle: Same State 1)	–	–	–	37.4 nM	95 nM	77.6 nM
CGUCCAGCCUGAGCUGGACAAAAGCAUGUACAUGAGGAUCACCCAUGUUCAUGUACAAGCUUUUUGCUCGUCUUAUU [salish99_208a_r3_050] (puzzle: Sensor for hsa-mir-208a)	–	–	–	681 nM	16.1 nM	739 nM
CGUCCCUCCACAGGAUAUCGACCAUUAAAACGGCGAGAAGGGUGGCCACAUGAGGAUCACCCAUGUGGAAUUGGACAAGCUACC [Veonso] (Eterna round: R96, puzzle: Same State NG 1)	127 nM	23.9 nM	127 nM	–	–	–
CGUCCGGCCUGUGCUGGCCGGCGGCUUGUACAUGAGGAUCACCCAUGUUCUUGUGCUGGCUUUUUGCUCGUCUUGUG [salish99_mir208a_022] (puzzle: Sensor for hsa-mir-208a)	–	–	–	32.2 nM	16.3 nM	39.5 nM
CUCAAACAUGAGGAUCACCCAUGUGUUGUCAUGGGAGGAUAUCUAAGUUCGUUGUAGUCGGGAGAAGGCCUAUGUC [× ×•×ª×• ×ž×“×™× ×” × ×—×ª-11] (puzzle: Same State 1)	–	–	–	–	182 nM	–
CUCAACAACACAGGAUAUCCAGGGAAAAGCCCUGGAGAAGGGUGACCAACAUGAGGAUCACCCAUGUGACGGCUAAACCGUCUG [Inususisre] (Eterna round: R96, puzzle: Same State NG 1)	319 nM	509 nM	60.7 nM	–	–	–
CUCUUACAUGAGGAUCACCCAUGUGUUGUCGUGGGAGGAUAUCCUGGUUCGGUGGCGUUGGGAGAAGGCCUAUGUC [× ×•×ª×• ×ž×“×™× ×” × ×—×ª-18] (puzzle: Same State 1)	–	–	–	–	378 nM	–
CUGAGCAAGCAAGGAUAUCACGUCGAAUAGACGUGAGAAGGUGCUCCUUACAUGAGGAUCACCCAUGUAUAACAUGAAGCUCAG [SSNG1/10-A1] (Eterna round: R96, puzzle: Same State NG 1)	254 nM	869 nM	1260 nM	–	–	–
CUGAGCAAUCAAGGAUAUCACGUCGUUUAGACGUGAGAAGGUGAUCAUAACAUGAGGAUCACCCAUGUAUUACAUGAAGCUCAG [SSNG1/1-A3] (Eterna round: R96, puzzle: Same State NG 1)	767 nM	363 nM	919 nM	–	–	–
CUGAGCAAUCUAGGAUAUCACGUCGAUUAGACGUGAGAAGGAGAUCAUAACAUGAGGAUCACCCAUGUAUUACAUGAAGCUCAG [SSNG1/7-A2] (Eterna round: R96, puzzle: Same State NG 1)	11.7 nM	13.8 nM	19.1 nM	–	–	–
